What was measured:
plasma factor X = plasma factor X (UniProt P00742)
plasma factor X, sequence (P00742 whole entry, looked up): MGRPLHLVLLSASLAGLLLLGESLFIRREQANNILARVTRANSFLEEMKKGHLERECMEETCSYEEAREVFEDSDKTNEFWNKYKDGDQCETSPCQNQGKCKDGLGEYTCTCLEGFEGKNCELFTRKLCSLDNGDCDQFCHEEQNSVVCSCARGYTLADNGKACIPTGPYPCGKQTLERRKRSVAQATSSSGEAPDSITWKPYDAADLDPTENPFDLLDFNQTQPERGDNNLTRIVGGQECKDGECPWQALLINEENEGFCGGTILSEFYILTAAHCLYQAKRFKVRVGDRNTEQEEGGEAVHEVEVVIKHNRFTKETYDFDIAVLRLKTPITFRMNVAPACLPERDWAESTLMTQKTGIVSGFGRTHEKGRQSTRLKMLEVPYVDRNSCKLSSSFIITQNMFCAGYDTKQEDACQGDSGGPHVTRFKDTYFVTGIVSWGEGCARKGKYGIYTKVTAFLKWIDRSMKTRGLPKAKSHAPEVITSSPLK

plasma factor X, P00742, sequence (P00742 whole entry, looked up): as above

In the case of thrombin, the “appearance of FXa activity after incubation with thrombin (100 nM FX / 10 nM IIa, up to 8 h)” value (plasma factor X) is reported as “did not result in the appearance of FXa activity”.

B1: factor VIIa/tissue factor (TF) complex (protein)
chain 1: ANAFLEELRPGSLERECKEEQCSFEEAREIFKDAERTKLFWISYSDGDQCASSPCQNGGSCKDQLQSYICFCLPAFEGRNCETHKDDQLICVNENGGCEQYCSDHTGTKRSCRCHEGYSLLADGVSCTPTVEYPCGKIPILEKRNASKPQGRIVGGKVCPKGECPWQVLLLVNGAQLCGGTLINTIWVVSAAHCFDKIKNWRNLIAVLGEHDLSEHDGDEQSRRVAQVIIPSTYVPGTTNHDIALLRLHQPVVLTDHVVPLCLPERTFSERTLAFVRFSLVSGWGQLLDRGATALELMVLNVPRLMTQDCLQQSRKVGDSPNITEYMFCAGYSDGSKDSCKGDSGGPHATHYRGTWYLTGIVSWGQGCATVGHFGVYTRVSQYIEWLQKLMRSEPRPGVLLRAPFP
chain 2: SGTTNTVAAYNLTWKSTNFKTILEWEPKPVNQVYTVQISTKSGDWKSKCFYTTDTECDLTDEIVKDVKQTYLARVFSYPAGNVESTGSAGEPLYENSPEFTPYLETNLGQPTIQSFEQVGTKVNVTVEDERTLVRRNNTFLSLRDVFGKDLIYTLYYWKSSSSGKKTAKTNTNEFLIDVDKGENYCFSVQAVIPSRTVNRKSTDSPVECMGQEKGEFREIFYIIGAVVFVVIILVIILAISLHKCRKAGVGQSWKENSPLNVS
With B1 the “FXa generated after incubation with FVIIa/TF (rate of hydrolysis of PNAPEP substrate)” value (plasma factor X, P00742) was “the already activated plasma FX and the plasma FX treated with the FVIIa/FT both gave a positive signal of the same order of magnitude”.

Reference: US20190338269
